Test results published in publication PMC11412654, “Immunization of cows with HIV envelope trimers generates broadly neutralizing antibodies to the V2-apex from the ultralong CDRH3 repertoire” (PLOS Pathogens, 2024).

Target: T1, BG505 gp120 (HIV-1 isolate BG505)
T1 construct: also called monomeric gp120; the monomer
Experiment: ELISA; plates coated with 250 ng of BG505 gp120; monoclonal antibodies from 20 μg/mL in seven 6-fold dilutions; detected with alkaline phosphatase conjugated anti-human F(ab')2; room temperature
Conditions: both partners purified

B1: Bess2 (antibody)
VH: KVQLRESGPSLVKPSQTLSLTCTVSGFSLSDKAVGWVRQAPGKALEWLGSIDTGGSTGYNPGLKSRLSITKDNSKSQVSLSVTSVTTEDSTTYYCTTVHQTTKTTKKCPDGYNYDDGCASDLGCGEADCCCYGGYDEYGGYLYSCCSYSYTYEWYVDAWGQGLLVTVSS
VL: QAVLNQPSSVSGSLGQRVSITCSGSSSNVGNGYVSWYQLIPGSAPRTLIYGDTSRASGVPDRFSGSRSGNTATLTISSLQAEDEADYFCASAEDSSSNAVFGSGTTLTVL
notes: also called Bess2 mAb; source: Expi293 or 293F cells, transfected, purified (Protein A Sepharose or Praesto AP)
Question: Does B1 bind?
Answer: Result: no binding (tested: 20 μg/mL (highest concentration))

B2: Bess6 (antibody)
VH: KVQLRESGPSLVKPSQTLSLICTVSGFSLSDKAVGWVRQAPGKALEWLGSIDTAGTTDHHPGLKSRLSITKDNSKNQVSLSLSSVTTEDSATYYCTTVHQPTSKQYSCPDGASVRTGGGWRWLCRGHDCCCVVEYIAYEQTPCTLTRTYEWHIDAWGQGLLVTVSS
VL: QAVLNQPSSVSGSLGQRVSITCSGSSSNVGNGYVSWYQLIPGSAPRTLIYGDTSRASGVPDRFSGSRSGNTATLTISSLQAEDEADYFCASAEDSSSNAVFGSGTTLTVL
notes: also called Bess6 mAb; source: Expi293 or 293F cells, transfected, purified (Protein A Sepharose or Praesto AP)
Question: Does B2 bind?
Answer: Result: no binding (tested: 20 μg/mL (highest concentration))
